Experimental data reported in the NTF2 design screens of Basanta et al. (2020).

Assay: protease stability score; higher = more stable; yeast display proteolysis, trypsin and chymotrypsin;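 also: relative to predicted unfolded state with 0 unfolded-like and 1 meaning tenfold more protease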

| Sequence | protease stability score |
| --- | --- |
| DEDEKYVREVFRRFVEAVITGNEEELLELIDPHVRVLINGVDNMGREKWSEWMKRYGFRVHHVRIDDEDLINGVARLDTTEDVEYDGRRDTRHSHIIINKVDGRWHIERLEFR | 1.01 |
| NEHEETIEILFRDIVHVLRTGDWKLFSDLMDPHARYVIGDKTFHGRESWVREFDRLLEQIKGVRFDVRHVNVVGDKVHAFTDWEFNGVMFDTRLDLHIVDGRIKEMRLEIR | 1.12 |
| DEDEEEYRRMHEILDDALETGDEHTISRMADPHVRNEINGVKLHGREIWFEYMKRLLDHLGVDNIKIKIRLRHIDRQGDKVLSETRLHVYFNGVEERRRTSQVWLKIDGQWHLHHVSVE | 0.869 |
| DDEEKHAHDILRLLFWVLMTGDEEIIRELFDPNVRVHIGDKEIHGWKELSRHTKEMRHHVRDTDEKDRRSDEDEIRLHGELDGELHFDGKRVKHRMDIHIIAVKIDGRWFFKSLYVR | 0.868 |
| DEDRLREQATNFIEAMQTGDTKRVDEQIDKDAQLVVGEKKYEGREQISTFVKEMHHQFDHVRLQRVTVSGNKVLLDVVMDFNGKDLRINIVIHMNNGKISQVQVDYTNPEDAKTARG | 0.914 |
| SEEEEESRFMFELIEHFLKTGNWEMISKLADPNMKTVINGKTYHGREMLIHEFEKLGADHITIHDYKDIDGQVIIHTRIHVGDKTYDVVIISEKVDGKWHLKEIHIR | 1.99 |
| SELEEHATKMLQMVLEWWFTGDEEIFKHLADPHVRVESLINGVEIRRVGMEKLHEWLKHVLIHLRFEDMKVKHLEIINGVARQDTRTHMDVNGKHVDLETHVVVVNVNGRLKSIKIEIR | 0.971 |
| SEDEKDARIAVKLLWEIFQTGDEDLFTKFIDPNTRSEINGREIHGREDVYRLMEELGIKVIRVHDVKTQGDKVHLTMEVTVNGRRHRVHFIFEKIDGRWIARHEKVE | 1.45 |
| REEEKIYHHLTEMWYEMLHTGNEEERERLFDPNTRVNIGDYHFHGREKLLEAYRRWRHMLGIKHYEVDRVEVIGDKVFSQGHSKAENHRLDVRIVIVVWNGRLKETSVDIH | 1.04 |
| SEEEEQAKRVIDHVTRAIHTGDEDVLRRQFDPHVKIEVGDKDIHGWETMYEILTHIRIETESDVKDFKVQGDKLIMDVRLRFTIRIDGVEIHRQTTTNIIVHKVNGRWQMKKVEIR | 0.409 |
| DEEEEFQRELVKLLVEWVHTGDWEHISKYADPHVKVHVDGRDSIGREEMRKTLKRFSDLLGADHIRFEHVRIIDGRVTIHSRVEYGDKEHHIIIQSSKIDGRWYLHSVDIR | 0.995 |
| DEEKELSKKLLEVFIKVMRTGDWRAFSERLDPHTRTDVNGVDIHGRENTLELLRRLEEEWGVSRVDVRIHDADHQGDYIKFDGIEIYNGVERRTRMVSEKFNGRWRNKIFILD | 0.238 |
| DEDERLEEEALRLLRHSLHTGDERIITELADPHARLEFNGREFHGREDFLRFIVHMRVRHEEEKSVRLQGDKVDVNWHMVVLFDGQLRRQDVRLILWKFNGRWHIKSIRIE | 1.5 |
| TEEEEHSKTLAEELLRVLLTGDEDTLHELFDPHARFHYGDKLHIGREEVTKALREVYERIDHYEVKHLEIQGDKVHVDGEHHIGDKSIRVRVHAWIVNGVVKQYHEHSL | 1.02 |
| DEEDRRYEHWFKLFLEIFLTGDFDQWKKLLDPHVRVDVNGQERVGRDQISEAMRRLLEILGVDHIEVEEVHLQGEKVNLNTQENVNGVETHSRIHVIVINGRLRHSKMDIN | 1.29 |
| DELEHMVRLLLKIWIHALITGDEELMMDQADPNVRLIIGDKIHHGMETFEEWVHQFKNLTVKHIVLRHTHYQGNKARIVGHLDIEINGRHHRLQTEIVIHKFNGKWYISDLRFD | 0.646 |
| DDEEHEARRVLEELIRVWITGNEELEDRLMDPNVRFVYGEYDLHGMEHFRHLLTVLKDQADHVSDVKLHDLEIQGDKVITRSVVDGVFNGRRFHRSQIIILIKVNGKWRIKSLHIH | 1.33 |
| SDLHHIVDNLLQEWLHARLTGDEDRLLELMDPDAREDVNGRTLVGREDSWKIMLELRFRVEHWHIHRLEIQGDKIDMDIEFDVRFDVDGVPYRLRTRQKIHIDVYNGKIQRLQVHIL | 0.325 |
| DEDEDDAERVFEELRKLIITGDEEEWEKLADPHVRVIINGRELHGREEWARFMRHMRIKNEHVHLRRMRVVDGRIEIDGEMDFRVDFNGQERRTRTDTNLIVTKYDGRWKLHHIEIR | 1.33 |
| DEEKEHAKEMLELHLRLWLTGNEDKLHRLADPHVRMTIDGKEFIGREEMIKAIREHLKRLGVDHVRIHWTRLHVVDGQIDLHTHIRLHVDGRTIEIESEIISVVFNGVMKSIEWKFK | 1.38 |
| DEHDESVRTAWEYYKRVIETGDEDISKKLADPHMKFEFENHSIHGWENIYRELTRLMREMRIHHVEIEHFRVYGDFVEIHIRVDGTVNGRRIITKMDLYITKIDGKWYLHSRRIE | 0.543 |
| DEETRDIIHILKLLWDAIRTGDEEAIRRLLDPDMRIQVGDKEIHGREEFLKEISHWRYDLESFHIKHVDVINGVAIIHLHIVGRFHYDGRTYHDSYEEDVFIFKVNGRWHFHQIKYR | 1.84 |
| DEVEKSVKEWVNIVIHWLKTGNEEEILKYADPNVRLNVNGVNYVGRENAEHASREHLHELGIKHEEQKDVKIHSINGRMLLIIHMRLEYDGQHHEVTIIVRTIKINGRWHIHEVEIRND | 1.21 |
| SEDEEIWRRYAKEWYHNWSTGNFDRFKQLMDPDARFIYGDKELVGREEVLRRIRHLLEHLRFKRSEIKREHVVNGVLHLDVHEDGEQGDKSRRSDVEIILYVINGRLHTVEIRIE | 1.61 |
| DDLEEATEFYIKLYYEAVETGDERLITELADPNMRIDWNGREIHGREEFVRRLREMRVSRIEVQHVDKYGDKLHIHVRIIIEVGDKKIESSSHLISLKFNGRWLLKSMWIK | 1.39 |

| Sequence | protease stability score |
| --- | --- |
| SEEEEIARRFISVWLHAFHTGDEKRLEEMIDPHVRVDYNGVEIIGRENWIEFMLTIMRNLGFNHIRVELDHLDFQGDKMRLETTLKRKVNGREERIDTRIHVKKIDGQWIFTHELYK | 0.795 |
| TEEDHFLKRELEKYIHSILTGDEDSTQHMIDPHARVFWNGVELHGRDAITKIMREWRIRHVRIERFEVQGDKIESHSISHMEINGKKHDHIFRITSEKYDGRWVIRELSIE | 1.51 |
| SEETEHIQKVMKDYIELVLTGDEEKWIHLADPHTRLILLFDGKEIHTHGWDRLIKVWQRIMEELGVDKVEIRMERVRSYGDKAESDVESRYNGRTHETEVTILVIDGRIKMVEVRFH | 1.14 |
| SELEQMWREAKETIEKINKTGDPRSLLENADPTVRTDYGEKDYHGREEFKKFLEWLGIKHIKDVRFRDFEVQGDKIIHDSEVDVEVGDKEFRIKSIVIALKVDGRWLITRLVFK | 1.9 |
| SEIHELAILVLKWLLDSMSTGDEESLRRLLDPHTRIHIDGKDLHGRHFLERILQEIRHEVKEYHIRDVRDINGVVTLDAHVRGNEYFDGRNHEHRTDTRLIIDKINGRWRIRELKFE | 1.12 |
| SEDDEFYKHAFNLMIRVLETGDEELFTKMADPNVRSEINGQDIHGREMLSHIVLEEVRRADHIEFRIDHFRVIGDKVEHDGTKILNVNGVNIELRFHLHSVKVNGKWILKSERVD | 0.869 |
| SEEEEDVRKFVHMLMLSFITGDWKMLWEMLDPEVRLHVGDKTIIGRERFVSFMQRLLRELRIKDFHVDSIEIQGEKAIIHTTLHIVIGEKEEDRYVRYIVIKIDGRWLIHRVHIH | 2.74 |
| DEDTHRLELVLDLWSFAMLTGDEETLTKLIDPNMRIEIGDKIAHGREKLHEMLREIRIQIHHVHLDDYRVYGNKITLHVHIRMTLHVDGRTIHTELKTEIIIHKIDGKWVFHKVRFE | 1.28 |
| SEDERDAQHFIELWDEAMRTGDFELLHYLMDPHTRILVNGRNLHGWEIYHKLLHEIRVKDSRSEDSRVIGDKVRVDQRVHGIVNGVETDLKTHLITEKFNGRWHYRSVEIK | -0.189 |
| DEKNHLWDEISEIFVQNWVTGDEDSLRHMADPNVRTDINGVELHGMEETNRFIIEELKHARSRVHLEHRDAVNGRIHLQTELYSNVDGQEIRYKTRIILIVVNGRLKEIKFIQH | 0.581 |
| DEEHRKLKKFVRESMEDHRTGDEDRRNELLDPNVRIEIGDKTFHGREDDKKWLEEFGVDHVEIRIRHIDIIGNKAIIDSELRIFVNGRILEFDTIIYAEKYDGRWVHHSVQVR | 0.077 |
| DELEKVMHDMADLILHLYLTGDWETFLELADPNVKITIGDKEHHGWKSWKRLLEEELRRVDHIDSKLKRVIAIGDKAHVDGHMEINVNGREYRLDVHIIYVIVNGRHKEIEIHSE | 1.31 |
| SEEEHELKHWMKLFKHMIETGDWDSLVHYLDPHTRMHVGEFHHHGRHLMLKAFHDFLREMGAKHSDHKDSEITIQGDKVELTLDTRSQVGDKEFNVRIININRKVNGRWIIHSIIIEVE | 1.09 |
| DEQHEEAERAMEHMNRIEHTGDEDDLDRLMDPRTKIEVGDKELHGRHLWRVFLREARIHDSKIRDIRVIGDKVTFHTEVRITINGVEVRVHVIMIIEKVDGKWLVHRVIIR | 1.35 |
| SREEEIAHDVFREWIESFRTGDEDHRTEMMDPNARVFVNGVEFVGRDEIVRFFRHLRFDNSRHEIKSVRVVDGVAHIDSHLELHGTVNGQRDRVSYKLNVHTSKIDGKWVITEVKVK | 2.03 |
| SEEEDTADEAIKLWLKLFITGDERTLARMMDPNTLNVVGDKEFHGWQFIIELVHKLFEEIRIHELTVEHLHVQGDKVRIDIRIDSRQGDKRHETKVEVILRKVNGRWTVEVIEIH | 2.39 |
| SEDHEALHKFLKELIESSRTGDWEDVTRLADPHTRQDFNGKILHGREELKETLKELGINHMEVILNRIDVQGDKAHVDGHLVIYYNGKEITREREIRMVKIDGVWLMHEVRIK | 1.15 |
| SEDEDISRNFLELEWKKHMTGDWRTFAENIDPNARVDIDGVEFHGRELISRLMHEKIRKHGVKIKHLHIDHVSSQGDKIHINTTLVGLFNGRDTHLEVHIVITKINGRWVLQEFHFD | 0.591 |
| DEHHEEIHRLVEIFLHLELTGDEDTWRELADPTAQIHIDGRDIHGMEDVLRVWEQFKKEMGIDHIRVKDYKVQGNFMHINTELEFNGRRVDSRIEIYIYDGRIKSVIIRYR | 2.25 |
| SDEERLLKEIYRIWIRLFETGDWKEFEQMFDPNVRLIIGDKDLHGMELYSKFMRHFVEHIRFEDHQEHEIRVIGDKIHVHGREVGNVNGKRHRREIEIRLVVVNGVFKSEELRVH | 1.18 |
| SEEEEDARQAFEEYTESLKTGDEDTLDRLLDPDTLLIINGREIHGMEEAIRIWHVWLRHMRFRSQEMRRIRVIDGKIDIESRSIIDINGREVDLRVHYILHKVNGRWLIESVRFE | 2.38 |
| DEDTKMSEEALRILVEIWRTGDEDRFLELADPHTRILINGRELHGMEFFVTWLRKVKNLKIERIQLDHVRFIDGRAELETTIRLRYGDKHDDLTFKFISDKFDGRWVLSEIIII | 2.15 |
| TERDEHIEEMTDEWIELLFTGDEESLKRLADPDMRVNFNGVEIHGMHNFMRWVLHVLEHWRIEVKIHHKEVQGDKIRVELKQNIHFNGRDIHRDNREHIFVVNGVNKHVILIYR | 1.43 |
| DETTEHMVHFFKETLHAIRTGDFKAQEELFDPNARVDVGDYKFHGRETISEWLRRRNEQLGFKHIEIRINHVEYINGKISVIGSVDSDINGVRIRHERREEYVVINGVLTLVRLEHR | 1.12 |
| DEHKDLAHKAITNFIEWTETGDFEMFLKLFDPNMRLRVDGQHHHGWHDVFRVFREMGYEIKSVKMDDVEIQGEKITVDLRVHVDINGQHEDIKTRYFFSKYDGKWIIEQIQVV | -0.276 |
